In the supplement of paper PMC10126150:
± gives the standard deviation of the averaged measurements.

Test system: ATP
Assay: switch fluorescence ratio, 500 uM ATP over buffer (Cy3 cluster intensity, sum of 5 cycles each) (fold (ratio)); higher = stronger signal-on switching upon ATP binding; sequences stand for … in TCGTCGGCAGCGTCAGATGTGTATAAGAGACAGTTTTTTTTTTTTTTTTTTTTTTTTT…TC
Conditions: aptamer strand: ATP DNA aptamer (quencher-CACCTGGGGGAGTATTGCGGAGGAAGG + anchor), 100 nM annealed; ATP concentration: 500 uM
In short: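 The quencher-labelled ATP aptamer, at 100 nM, was annealed to Cy3-labelled switching-strand clusters on a modified Illumina MiSeq flow-cell. The clusters were imaged in selection buffer, then after 15 min with 500 uM ATP at 22 °C, and this buffer/ATP cycle ran five times with NaOH stripping and re-annealing between runs. Per-cluster fluorescence ratios, summed target-cycle over summed buffer-cycle Cy3 intensity, were averaged per switch-domain sequence. Clusters outside 100-1000 RFU were excluded.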
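Further: ATP exposure 15 min at 22 °C before imaging.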

Row | Sequence | switch fluorescence ratio
1 | GGGGAAGTGG | 1 ± 0.026
2 | CATGTGGGTA | 0.981 ± 0.053
3 | ATTTGGGT | 0.999 ± 0.021
4 | GCTCAATCTT | 0.967 ± 0.01
5 | AAGTGATTGT | 0.994 ± 0.028
6 | CGGTTACATT | 1 ± 0.014
7 | ATTCATGAT | 0.969 ± 0.044
8 | CCTGATTGAA | 0.991 ± 0.0088
9 | TTCCGCGCAG | 1.18 ± 0.016
10 | AATTTGTAGT | 1.03 ± 0.025
11 | TGGGGCCTGG | 1.1 ± 0.23
12 | ATTACTCGCG | 1.05 ± 0.012
13 | AGGGCGCTG | 0.9885 ± 0.0045
14 | TTTTAGATCG | 0.997 ± 0.016
15 | TTTGCCACTT | 0.991 ± 0.011
16 | TTGTGTTTTA | 0.998 ± 0.02
17 | TTTTTTGTCC | 1.01 ± 0.018
18 | GAGGTTGG | 1.02 ± 0.017
19 | TGCGGCCCAT | 0.979 ± 0.016
20 | ACTACGCTTG | 1.29 ± 0.022
21 | AGGATTTTTC | 1.03 ± 0.044
22 | ATACTTTGCT | 1 ± 0.034
23 | GACGGGTTTG | 0.9915 ± 0.0074
24 | ATGGGGCGTG | 0.974 ± 0.016
25 | TGCAAGTGGC | 1.09 ± 0.15
26 | TTACTGCGTA | 1.02 ± 0.015

Row | Sequence | switch fluorescence ratio
27 | CGGTTTATAA | 0.981 ± 0.013
28 | ATCTGTAAGG | 1.02 ± 0.043
29 | AGGACGACGG | 0.964 ± 0.021
30 | TAGGGCGTGC | 0.9973 ± 0.0061
31 | CGTGGGATAG | 1.04 ± 0.036
32 | AGAGGGTTAA | 0.988 ± 0.031
33 | GTTATTTTGA | 1.01 ± 0.017
34 | GGGATGGACC | 1 ± 0.018
35 | GCGAGTGTAC | 0.983 ± 0.094
36 | TTATGAGGTG | 1.08 ± 0.061
37 | CGGGGGGCGT | 0.999 ± 0.021
38 | ATGCTAAGCT | 1.013 ± 0.0096
39 | CATTAACAGG | 1.03 ± 0.021
40 | GACTGGTATG | 0.972 ± 0.011
41 | ATTCCTAACA | 1.008 ± 0.0089
42 | CCATTGATGT | 1.02 ± 0.023
43 | GTAATGGTTT | 1.07 ± 0.17
44 | CAGTTTGTTC | 0.987 ± 0.022
45 | TACGGATTAG | 1.051 ± 0.0051
46 | TTTTCGTAGG | 0.983 ± 0.011
47 | TTTGATGCCG | 0.973 ± 0.03
48 | GAAGAGGGTT | 0.972 ± 0.033
49 | TCCAGAGTGC | 1.017 ± 0.0033
50 | GAGTTAGTGG | 1.01 ± 0.041
51 | AGTGTGAGGT | 0.9858 ± 0.0091
52 | AATTGGGGCG | 0.969 ± 0.025

Row | Sequence | switch fluorescence ratio
53 | AAATGGCCGG | 0.996 ± 0.024
54 | ACCAATTCGC | 1.06 ± 0.029
55 | GAAGGAGCGG | 0.982 ± 0.023
56 | GAGTGAGGGA | 1.03 ± 0.024
57 | TGAAGTACTT | 1.06 ± 0.011
58 | GAGTGAGGTG | 1.01 ± 0.1
59 | AAGAGCGGGG | 0.989 ± 0.043
60 | AAACCGTT | 1.04 ± 0.024
61 | TATTTTTAGC | 1 ± 0.03
62 | GGATGCAAGT | 0.998 ± 0.039
63 | TTATAGGTGC | 1.11 ± 0.022
64 | TTCAGTAAGA | 1 ± 0.04
65 | TTCAGATCCG | 0.967 ± 0.0076
66 | GGTCCTGTCG | 1.03 ± 0.042
67 | ATGTACGGAT | 1.02 ± 0.059
68 | GTTTTTTCGA | 1.024 ± 0.0051
69 | TTATGTGGGA | 0.975 ± 0.037
70 | TTGAGGTC | 1 ± 0.029
71 | TCTACGAGAG | 1.04 ± 0.048
72 | GGTGTATAA | 0.995 ± 0.032
73 | GGCTTGCTTT | 1.01 ± 0.021
74 | ACGAGCGATT | 1.7 ± 0.058
75 | TGTTTCCTTT | 1 ± 0.019
76 | AGGCTTTTTG | 0.969 ± 0.015
77 | TTATTGGTAT | 0.998 ± 0.018
78 | AGTTGTGTGC | 0.952 ± 0.044

Row | Sequence | switch fluorescence ratio
79 | TGCGGGGGCA | 1.02 ± 0.025
80 | ACCTAGTCGG | 1.01 ± 0.015
81 | AGAACTTTTT | 0.98 ± 0.011
82 | AGTTTACTTT | 1.03 ± 0.017
83 | TATGGTCGC | 1.03 ± 0.026
84 | CTCTGGGATG | 1.01 ± 0.064
85 | CGTATTATAA | 1.01 ± 0.023
86 | GTGGCTGGG | 0.988 ± 0.038
87 | TCGGGGCGAA | 1.85 ± 1.3
88 | GGCATGGGTT | 1 ± 0.019
89 | GCCCTGATGG | 1 ± 0.035
90 | TTTGTACTCG | 1.01 ± 0.011
91 | TATAGGTCGG | 0.9695 ± 0.0057
92 | TTTATACGGG | 1.02 ± 0.039
93 | TCCTGATTAT | 0.989 ± 0.011
94 | AACAGTACAC | 1.22 ± 0.023
95 | AAGACTGAGC | 1.033 ± 0.0071
96 | TGGCAGGAAT | 0.9766 ± 0.0014
97 | AGGCTTACCC | 1.01 ± 0.018
98 | CTATTTTTTT | 1.01 ± 0.02
99 | CTCTAGGGGC | 1.128 ± 0.0065
100 | ATGTTTCATT | 0.9727 ± 0.0052
101 | CCCTGGGGGT | 1.15 ± 0.067
102 | TACCTGGTAC | 1.056 ± 0.0043
103 | GAGGGAGGTA | 0.9658 ± 0.006
104 | CTGTTGGAAT | 0.978 ± 0.025

Row | Sequence | switch fluorescence ratio
105 | TCCAGGGTGC | 1.93 ± 0.37
106 | GATTGAAGCC | 0.962 ± 0.064
107 | AATGGGTCTA | 0.985 ± 0.02
108 | GACTTGTTGG | 0.974 ± 0.042
109 | TGACCGAATT | 1.03 ± 0.054
110 | TTGGGAGGGT | 0.999 ± 0.029
111 | GACGCATCTA | 3.35 ± 0.36
112 | AGACTGGGGG | 0.997 ± 0.033
113 | CCTATTACTT | 1 ± 0.034
114 | GTTGAGAGTG | 1 ± 0.049
115 | TTATTTTGTG | 0.987 ± 0.035
116 | AGGTGGGGGG | 1.01 ± 0.043
117 | ATCTGGTTTG | 0.955 ± 0.023
118 | GCGCTCAGGT | 1.09 ± 0.13
119 | ATCATAATTG | 1.005 ± 0.0092
120 | TAGCTCCGAC | 1.399 ± 0.0031
121 | GGGGTGGGCA | 1 ± 0.011
122 | TTTGTGAGCA | 1.06 ± 0.08
123 | CATCCTGAAT | 1.08 ± 0.027
124 | AGTCGGGTAC | 1.04 ± 0.033
125 | ACGTTAATGA | 1.121 ± 0.002
126 | CTATCTGTTT | 0.9561 ± 0.002
127 | TTGTAAGGGT | 0.978 ± 0.017
128 | AGGGGGTCGT | 0.98 ± 0.017
129 | ACGGTCGCGT | 1 ± 0.012
130 | GCGTAGTATT | 0.9954 ± 0.0085

Row | Sequence | switch fluorescence ratio
131 | TATTGTGTTC | 0.9965 ± 0.0035
132 | GACTGAGTTC | 0.972 ± 0.042
133 | CGAATGGTAA | 1.05 ± 0.051
134 | ATCGTTAATT | 0.981 ± 0.041
135 | AGTACTTGCC | 1.03 ± 0.016
136 | ATTTCGGA | 0.975 ± 0.034
137 | ATGCATGGGA | 0.987 ± 0.02
138 | AGATGAGCCG | 1.05 ± 0.11
139 | AAACAGTTGT | 1.01 ± 0.055
140 | CACGAGGGAG | 0.982 ± 0.022
141 | CCATATCTAT | 1 ± 0.029
142 | TACGACCGTG | 1.01 ± 0.046
143 | GGGGTGCCTG | 0.999 ± 0.039
144 | TGGCGGAAAG | 0.977 ± 0.025
145 | TTATGGGGTG | 1.01 ± 0.027
146 | AGGGATATAT | 0.98 ± 0.011
147 | GTTATTTTAG | 0.988 ± 0.037
148 | GTAGATAGTT | 1.02 ± 0.036
149 | TTAATTTTAT | 0.991 ± 0.015
150 | GCGAAAGGCG | 0.992 ± 0.022
151 | GGGGTAGAGG | 0.977 ± 0.015
152 | GCGGGGGTTC | 1.04 ± 0.05
153 | CGGCTTATGG | 1.03 ± 0.07
154 | GAATGTTGTT | 0.9476 ± 0.0092
155 | TGCTTGCGGA | 1.02 ± 0.023
156 | CAGCGAGGTC | 1.05 ± 0.012

Row | Sequence | switch fluorescence ratio
157 | GGTGTCGGGA | 0.9705 ± 0.009
158 | ACGAGAGTTG | 0.975 ± 0.021
159 | TTATTGGTGG | 0.966 ± 0.04
160 | TTGGACGGTT | 1 ± 0.015
161 | GGGGACGGCA | 1.01 ± 0.046
162 | GGGAAAGAGG | 0.991 ± 0.048
163 | ATGTCGGGCT | 0.982 ± 0.042
164 | GGAGGTACAC | 1.03 ± 0.037
165 | TTAGATGGGG | 1.01 ± 0.11
166 | GGTCCGGTTC | 1.01 ± 0.025
167 | GCAGGATCCG | 0.99684 ± 0.00077
168 | ATGTGTCTGG | 0.998 ± 0.011
169 | ATAATCGGGA | 0.994 ± 0.034
170 | GAATGGAGTA | 1.04 ± 0.039
171 | GAGCTTGGGG | 0.991 ± 0.028
172 | ATAATCTCTA | 0.9907 ± 0.0094
173 | TATGAGTGGG | 0.976 ± 0.018
174 | AGTAGGTG | 1.05 ± 0.04
175 | TTTTAGGGTT | 1.01 ± 0.027
176 | GAGAGAACTT | 1.03 ± 0.021
177 | TAAGGGGAAC | 1.01 ± 0.03
178 | CTCCCCAGGG | 2.689 ± 0.013
179 | ATATGGTAAA | 0.958 ± 0.015
180 | TTTTTGGCTC | 1.01 ± 0.019
181 | AGGACCGTTA | 1 ± 0.031
182 | GGGGTGTCTG | 0.9792 ± 0.0074

Row | Sequence | switch fluorescence ratio
183 | TTGGGAATTC | 0.98044 ± 0.00048
184 | GAATGGCCTT | 0.9949 ± 0.0072
185 | GCGTCAGTCG | 0.949 ± 0.015
186 | GGTCCGGGTT | 1.006 ± 0.01
187 | TTAGGGATGG | 0.992 ± 0.023
188 | GGATTTGGG | 0.964 ± 0.014
189 | TCCCCGTTTC | 1.65 ± 0.75
190 | TTTTTTTTTG | 0.987 ± 0.025
191 | GGATTGAATC | 1 ± 0.015
192 | AGGAAGGGGC | 0.96 ± 0.018
193 | GTTACTCTGA | 1.055 ± 0.0083
194 | TGAGTCTTCG | 1.03 ± 0.017
195 | CTTTATGCTG | 1.05 ± 0.047
196 | GGCCTTGTCG | 1.06 ± 0.046
197 | CATGGGGAGT | 0.969 ± 0.024
198 | TGCAAGAAGT | 1.022 ± 0.0069
199 | CCAGGAGGGA | 1.002 ± 0.0041
200 | CCGGGACAGC | 1.17 ± 0.077
201 | ATTAGTTGGG | 1.0052 ± 0.00057
